Results as given in US20240226321A1 (ANJARIUM BIOSCIENCES, published 2024).

Target: T1, FcRn of the Lumit FcRn Binding Immunoassay (Promega) (UniProt P55899 24-297; P61769 21-119, limits assumed)
T1 construct: Bought kit reagent ('split FcRn/Tracer'); also called split FcRn
Assay: Lumit FcRn Binding Immunoassay (Promega), serial dilution of EVs competing with the kit's Tracer for FcRn, luminescence as fraction of max signal
Protocol: A Lumit™ FcRn Binding Immunoassay (Promega) assay was performed with purified EVs described in Example 1 and native Hek293 EVs. […] Detection reagent was added and luminescence was detected on a plate reader.

IC50 (read off the curve): ~0.2 nM
B1: targeting monobody-linker1-modified monomeric Fc-linker2-EphB2 scaffold-linker3-turboluc fusion protein, displayed on purified EVs (Fc fusion)
chain: VSDVPRDLEVVAATPTSLLISWYYPFCAFYYRITYGETGGNSPVQEFTVPRSPDTATISGLKPGVDYTITVYAVTCLGSYSRPISINYRTGGGGSGGGGSGGAPEAAGGPSVFLFPPKPKDTLMISRTPEVTCVVVDVSHEDPEVKFNWYVDGVEVHNAKTKPREEQYNSTYRVVSVLTVLHQDWLNGKEYKCKVSNKALGAPIEKTISKAKGQPREPQVYTKPPSRDELTKNQVSLSCLVKGFYPSDIAVEWESNGQPENNYKTTVPVLDSDGSFRLASYLTVDKSRWQQGNVFSCSVMHEALHNHYTQKSLSLSPGGGSGGGSGGGSGGGSRKCPRIIQNGAIFQETLSGAESTSLVAARGSCIANAEEVDVPIKLYCNGDGEWLVPIGRCMCKAGFEAVENGTVCRGCPSGTFKANQGDEACTHCPINSRTTSEGATNCVCRNGYYRADLDPLDMPCTTIPSAPQAVISSVNETSLMLEWTPPRDSGGREDAVYNIICKSCGSGRGACTRCGDNVQYAPRQLGLTEPRIYASDLLAHTQYTFEIQAVNGVTDQSPFSPQFASVNITTNQAAPSAVSIMHQVSRTVDSITLSWSQPDQPNGVILDYELQYYEKELSEYNATAIKSPTNTVTVQGLKAGAIYVFQVRARTVAGYGRYSGKMYFQTMTEAEYQTEIQEKLPLIIGSSAAGLVFLIAVVVISIVCNRRGFERADSEYTDKLQHYTSGHMTPGMKIYIDPFTYEDPNEAVREFAKEIDISCVKIEQVIGAGEFGEVCSGHLKLPGKREIFVAIKTLKSGYTEKQRRDFLSEASIMGQFDHPNVIHLEGVVTKSTPVMIITEFMENGSLDSFLRQNDGQFTVIQLVGMLRGIAAGMKYLADMNYVHRDLAARNILVNSNLVCKVSDFGLSRFLEDDTSDPTYTSALGGKIPIRWTAPEAIQYRKFTSASDVWSYGIVMWEVMSFGERPYWDMTNQDVINAIEQDYRLPPPMDCPSALHQLMLDCWQKDRNHRPKFGQIVNTLDKMIRNPNSLKAMAPLSSGINLPLGGGEAEAERGKLPGKKLPLEVLIELEANARKAGCTRGCLICLSKIKCTAKMKKYIPGRCADYGGDKKTGQAGIVGAIVDIPEISGFKEMEPMEQFIAQVDRCADCTTGCLKGLANVKCSDLLKKWLPGRCATFADKIQSEVDNIKGLAGD
notes: also called EVs expressing the modified Fc domain
